Measurements published in article PMC10949315, “RrA, an enzyme from Rhodospirillum rubrum, is a prototype of a new family of short‐chain L‐asparaginases” (Protein Science : A Publication of the Protein Society, 2024).

Legend:
[1] = target: T1, RrA (Rhodospirillum rubrum, UniProt Q2RMX1, Y21F); assay: X-ray crystal structure, […] Å; assay type: binding; conditions: active site, three of four protomers; also 8up3 (co-purified L-Asp in some protomers)
T1 construct: gene Rru_A3730; full length, 172 residues, Lys149 natural variant (Glu149 in the first report); synthetic gene in pET15b, N-terminal His6 tag removed by TEV protease, expressed in E. coli BL21(DE3) RIPL; homotetramer, active site completed by Tyr21 and Asn26 of another protomer

[2] = target: T2, RrA (Rhodospirillum rubrum, UniProt Q2RMX1); assay: nanoDSF back-reflection, aggregation onset; assay type: binding; conditions: 20 mM ligand, 0.1 M Na-citrate pH 5.0, 0.2 M NaCl; 42.3 °C without ligand
T2 construct: gene Rru_A3730; full length, 172 residues, Lys149 natural variant (Glu149 in the first report); synthetic gene in pET15b, N-terminal His6 tag removed by TEV protease, expressed in E. coli BL21(DE3) RIPL; homotetramer, active site completed by Tyr21 and Asn26 of another protomer
T2 sequence (Q2RMX1 1-172): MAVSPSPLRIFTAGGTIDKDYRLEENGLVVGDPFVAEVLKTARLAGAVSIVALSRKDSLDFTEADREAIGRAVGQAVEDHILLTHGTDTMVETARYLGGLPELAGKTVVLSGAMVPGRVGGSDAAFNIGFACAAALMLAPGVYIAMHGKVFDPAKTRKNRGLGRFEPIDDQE

[3] = target: RrA(K19A) (Rhodospirillum rubrum); assay: dynamic light scattering; protein at 0.22-1.1 mM in the standard buffer (50 mM HEPES, 200 mM NaCl, pH 7), 20°C, DynaPro Nanostar; proteins modelled as globular; oligomer in solution
[4] = target: RrA(K19A) (Rhodospirillum rubrum); assay: crystal structure; hanging drops, 293 K, protein 19-21 mg/mL in the standard buffer, with or without L-Asp; tetramer as a dimer of tight dimers, in the asymmetric unit or made by crystal symmetry
[5] = target: RrA(K19E) (Rhodospirillum rubrum); assay: dynamic light scattering; protein at 0.22-1.1 mM in the standard buffer (50 mM HEPES, 200 mM NaCl, pH 7), 20°C, DynaPro Nanostar; proteins modelled as globular; oligomer in solution
[6] = target: RrA(K19E) (Rhodospirillum rubrum); assay: crystal structure; hanging drops, 293 K, protein 19-21 mg/mL in the standard buffer, with or without L-Asp; tetramer as a dimer of tight dimers, in the asymmetric unit or made by crystal symmetry
[7] = target: RrA(K19Q) (Rhodospirillum rubrum); assay: dynamic light scattering; protein at 0.22-1.1 mM in the standard buffer (50 mM HEPES, 200 mM NaCl, pH 7), 20°C, DynaPro Nanostar; proteins modelled as globular; oligomer in solution
[8] = target: RrA(K19Q) (Rhodospirillum rubrum); assay: crystal structure; hanging drops, 293 K, protein 19-21 mg/mL in the standard buffer, with or without L-Asp; tetramer as a dimer of tight dimers, in the asymmetric unit or made by crystal symmetry
[9] = target: RrA(K158M) (Rhodospirillum rubrum); assay: dynamic light scattering; protein at 0.22-1.1 mM in the standard buffer (50 mM HEPES, 200 mM NaCl, pH 7), 20°C, DynaPro Nanostar; proteins modelled as globular; oligomer in solution
[10] = target: RrA(K158M) (Rhodospirillum rubrum); assay: crystal structure; hanging drops, 293 K, protein 19-21 mg/mL in the standard buffer, with or without L-Asp; tetramer as a dimer of tight dimers, in the asymmetric unit or made by crystal symmetry
[11] = target: RrA(Y21A) (Rhodospirillum rubrum); assay: dynamic light scattering; protein at 0.22-1.1 mM in the standard buffer (50 mM HEPES, 200 mM NaCl, pH 7), 20°C, DynaPro Nanostar; proteins modelled as globular; oligomer in solution
[12] = target: RrA(Y21A) (Rhodospirillum rubrum); assay: crystal structure; hanging drops, 293 K, protein 19-21 mg/mL in the standard buffer, with or without L-Asp; tetramer as a dimer of tight dimers, in the asymmetric unit or made by crystal symmetry
[13] = target: RrA(Y21F) (Rhodospirillum rubrum); assay: dynamic light scattering; protein at 0.22-1.1 mM in the standard buffer (50 mM HEPES, 200 mM NaCl, pH 7), 20°C, DynaPro Nanostar; proteins modelled as globular; oligomer in solution
[14] = target: RrA(Y21F) (Rhodospirillum rubrum); assay: crystal structure; hanging drops, 293 K, protein 19-21 mg/mL in the standard buffer, with or without L-Asp; tetramer as a dimer of tight dimers, in the asymmetric unit or made by crystal symmetry
[15] = substrate: NC(=O)C[C@H](N)C(=O)O; assay: ammonia release by Nessler's reagent, A480; Lineweaver-Burk; assay type: biochemical, Rhodospirillum rubrum; conditions: PBS pH 7.4, 20 °C, substrate inhibition above 5 mM
[16] = target: the molecule itself; assay: mass photometry; RrA(wt) at 25 nM and 65 nM in the standard buffer (50 mM HEPES, 200 mM NaCl, pH 7), 20°C, Refeyn TwoMP; minor lower-mass peak only in the 25 nM sample
[17] = target: the molecule itself; assay: dynamic light scattering; protein at 0.22-1.1 mM in the standard buffer (50 mM HEPES, 200 mM NaCl, pH 7), 20°C, DynaPro Nanostar; proteins modelled as globular; oligomer in solution

T1 sequence (Q2RMX1 entry or part of it Y21F): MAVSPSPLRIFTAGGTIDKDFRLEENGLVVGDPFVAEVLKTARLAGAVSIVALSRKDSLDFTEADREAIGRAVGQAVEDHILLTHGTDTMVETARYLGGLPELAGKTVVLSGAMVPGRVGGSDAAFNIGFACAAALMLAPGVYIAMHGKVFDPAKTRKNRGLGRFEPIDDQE

For `N[C@@H](CC(=O)O)C(=O)O` [L‐Asp], the “X-ray crystal structure, 1.90 Å” value [1] was “the ligand was present in three out of four protomers” and the T agg [2] was 61.3 °C.

`N[C@@H](CCC(=O)O)C(=O)O` [L‐Glu] gave a T agg [2] of 61.5 °C.

Work on RrA(K19A) (enzyme) yielded a stoichiometry N [3] of 4 and a stoichiometry N [4] of 4.

Work on RrA(K19E) (enzyme) yielded a stoichiometry N [5] of 4 and a stoichiometry N [6] of 4.

In the case of RrA(K19Q) (enzyme), the stoichiometry N [7] is reported as 4 and the stoichiometry N [8] is reported as 4.

RrA(K158M) (enzyme) gave a stoichiometry N [9] of 4 and a stoichiometry N [10] of 4.

Work on RrA(Y21A) (enzyme) yielded a stoichiometry N [11] of 4 and a stoichiometry N [12] of 4.

RrA(Y21F) (enzyme) was tested, and the stoichiometry N [13] was 4 and the stoichiometry N [14] was 4.

B1: RrA(wt), short-chain L-asparaginase from Rhodospirillum rubrum (enzyme, UniProt Q2RMX1 1-172, looked up)
chain: MAVSPSPLRIFTAGGTIDKDYRLEENGLVVGDPFVAEVLKTARLAGAVSIVALSRKDSLDFTEADREAIGRAVGQAVEDHILLTHGTDTMVETARYLGGLPELAGKTVVLSGAMVPGRVGGSDAAFNIGFACAAALMLAPGVYIAMHGKVFDPAKTRKNRGLGRFEPIDDQE
notes: L-asparaginase RrA of Rhodospirillum rubrum, synthetic gene of GenBank QXG80441.1; protomer of 172 residues (Met1 traced in the structure); the GenBank entry and the PDB entries hold; source: E. coli BL21(DE3) RIPL, pET15b, purified (HisTrap, TEV cleavage, second HisTrap flow-through, Superdex 75); not shown: His6, N-terminal, cleaved
For B1, the Km [15] was 3.6 ± 0.3 mM, the kcat [15] was 58.2 ± 3.0 s⁻¹ and the “stoichiometry N” value [16] was 2. The “stoichiometry N” value [17] was 4.
